# Data as given in article PMC9734377 (Communications Biology, 2022).
# Values joined by “and” are separate entries in the source; they are usually repeats but may differ in a detail not shown here. Equal entries are not always repeated.
# T1: LdG6PD wt dimer (LdG6PD^Dimer) (Leishmania donovani, UniProt A2CIL3)
# T1 construct: gene g6pdh
# T1 sequence (A2CIL3 1-562): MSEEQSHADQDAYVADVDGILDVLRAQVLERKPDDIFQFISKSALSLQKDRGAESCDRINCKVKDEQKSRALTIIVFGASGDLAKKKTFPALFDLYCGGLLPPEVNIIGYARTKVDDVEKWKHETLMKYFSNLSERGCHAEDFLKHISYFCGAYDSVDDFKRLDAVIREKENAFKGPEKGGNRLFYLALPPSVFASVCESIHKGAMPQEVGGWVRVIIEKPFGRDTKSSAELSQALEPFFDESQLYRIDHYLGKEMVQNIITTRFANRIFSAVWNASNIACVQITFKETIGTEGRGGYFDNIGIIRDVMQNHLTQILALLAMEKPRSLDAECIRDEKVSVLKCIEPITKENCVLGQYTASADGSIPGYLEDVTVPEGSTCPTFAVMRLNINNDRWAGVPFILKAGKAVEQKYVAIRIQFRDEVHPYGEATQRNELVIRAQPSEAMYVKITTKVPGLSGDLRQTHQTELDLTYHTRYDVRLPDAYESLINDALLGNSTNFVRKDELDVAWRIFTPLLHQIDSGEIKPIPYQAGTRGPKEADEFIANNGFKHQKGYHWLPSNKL
# B1: LdG6PD wt dimer (LdG6PD^Dimer) (Leishmania donovani) (protein)
# chain: T1 sequence (A2CIL3 1-562)
# B2: LdG6PD wt tetramer (LdG6PD^Tetramer) (Leishmania donovani) (protein)
# chain: T1 sequence (A2CIL3 1-562)
# B3: LmG6PD wt (Leishmania major) (protein)
# chain: MSEEQSHADQDAYVADVDGILDVLRAEVLERKPDDVFQFISQSALSLQKDRGAESCDRINCKVTDEQKSRALTIIVFGASGDLAKKKTFPALFDLYCGGLLPPEVNVIGYARTKVDDAERWKRETLMTYFSNVPERACHAEDFLKHISYFCGSYDKVDDFKRLDAVIREKENAFKGPEKGGNRLFYLALPPSVFASVCESIHKGAMPQEVGGWARVIIEKPFGRDTKSSAELSRALEPFFDESQLYRIDHYLGKEMVQNIITTRFANRIFSAVWNSNNIACVQITFKETIGTEGRGGYFDGIGIIRDVMQNHLTQILALLAMEKPRSLDAECIRDEKVSVLKCIEPITKENCVLGQYTASADGSIPGYQEDVTVPEGSTCPTFAVMRLNINNDRWAGVPFILKAGKAVEQKYVAIRIQFKDEVHPYGEATQRNELVIRAQPSEAMYVKITTKVPGLSGDLRQTHQTELDLTYHTRYDVRLPDAYESLINDALLGNSTNFVRKDELDVAWRIFTPLLHQIDCGEIKPIPYQAGTRGPKEADEFITNNGFKHQKGYQWLPSNKL
# What was measured:
# [1] = biological target: Leishmania donovani glucose 6-phosphate dehydrogenase truncation mutant lacking the first 59 N-terminal amino acids (Leishmania donovani); assay: SEC
# [2] = biological target: T1, LdG6PD wt dimer (LdG6PD^Dimer); assay: product inhibition, Lineweaver-Burk; assay type: biochemical; conditions: 0-80 µM NADPH; competitive against NADP+ (G6P 800 µM) and against G6P (NADP+ 200 µM); pH 7.5, 25 °C; oligomer fraction not told
# [3] = biological target: Leishmania donovani glucose 6-phosphate dehydrogenase C138S mutant (Leishmania donovani); assay: SEC
# [4] = biological target: Leishmania major glucose 6-phosphate dehydrogenase wild type (Leishmania major); assay: SEC; HiLoad 16/60 Superdex 200, buffer A (500 mM NaCl, 50 mM Tris, pH 7.8), native conditions; for LdG6PD wt also 12-300 uM enzyme, 5 mM DTT, 2 mM H2O2, substrates (100 uM G6P, NADP+), 0.1-1 M NaCl, pH 4.8-7.8, all without change of the profile; self-association: monomers to dimer and dimers to tetramer
# [5] = biological target: T1, LdG6PD wt dimer (LdG6PD^Dimer); assay: dead-end inhibition, Lineweaver-Burk; assay type: biochemical; conditions: 0-20 µM GlcN 6-P; competitive against G6P, not against NADP+; pH 7.5, 25 °C; oligomer fraction not told
# [6] = tested on: NC(=O)c1ccc[n+]([C@@H]2O[C@H](COP(=O)(O)OP(=O)(O)OC[C@H]3O[C@@H](n4cnc5c(N)ncnc54)[C@H](OP(=O)(O)O)[C@@H]3O)[C@@H](O)[C@H]2O)c1; assay: purified protein; assay type: biochemical, Leishmania donovani; conditions: 800 µM G6P, 50 mM Tris pH 7.5, 3.3 mM MgCl2, 25 °C, crystal ligand given as NADP(H), redox state open
# [7] = biological target: Leishmania donovani glucose 6-phosphate dehydrogenase wild type (Leishmania donovani); assay: SEC; HiLoad 16/60 Superdex 200, buffer A (500 mM NaCl, 50 mM Tris, pH 7.8), native conditions; for LdG6PD wt also 12-300 uM enzyme, 5 mM DTT, 2 mM H2O2, substrates (100 uM G6P, NADP+), 0.1-1 M NaCl, pH 4.8-7.8, all without change of the profile; self-association: monomers to dimer and dimers to tetramer
# [8] = substrate: NC(=O)c1ccc[n+]([C@@H]2O[C@H](COP(=O)(O)OP(=O)(O)OC[C@H]3O[C@@H](n4cnc5c(N)ncnc54)[C@H](OP(=O)(O)O)[C@@H]3O)[C@@H](O)[C@H]2O)c1; assay: purified protein; conditions: 800 µM G6P
# [9] = substrate: NC(=O)c1ccc[n+]([C@@H]2O[C@H](COP(=O)(O)OP(=O)(O)OC[C@H]3O[C@@H](n4cnc5c(N)ncnc54)[C@H](OP(=O)(O)O)[C@@H]3O)[C@@H](O)[C@H]2O)c1; assay: purified protein; assay type: biochemical, Leishmania donovani; conditions: 800 µM G6P, 50 mM Tris pH 7.5, 3.3 mM MgCl2, 25 °C, tetramer fraction
molecule,measurement,setting,value
Leishmania donovani glucose 6-phosphate dehydrogenase truncation mutant lacking the first 59 N-terminal amino acids (domain or fragment),stoichiometry N,[1],2
NC(=O)C1=CN([C@@H]2O[C@H](COP(=O)(O)OP(=O)(O)OC[C@H]3O[C@@H](n4cnc5c(N)ncnc54)[C@H](OP(=O)(O)O)[C@@H]3O)[C@@H](O)[C@H]2O)C=CC1 [NADPH],"product inhibition, Lineweaver-Burk",[2],NADPH was found to be a competitive inhibitor with respect to NADP^+ in LdG6PD
Leishmania donovani glucose 6-phosphate dehydrogenase C138S mutant (enzyme),stoichiometry N,[3],2 and 4
Leishmania major glucose 6-phosphate dehydrogenase wild type (enzyme),stoichiometry N,[4],2 and 4
"N[C@H]1C(O)O[C@H](COP(=O)(O)O)[C@@H](O)[C@@H]1O (stereo partly shown) [GlcN 6-P, glucosamine 6-phosphate]","dead-end inhibition, Lineweaver-Burk",[5],GlcN 6-P shows a competitive inhibition pattern towards G6P
LdG6PD^60–562 (Leishmania donovani),Km,[6],14.3 ± 2.2 µM
same,Vmax,[6],233 µmol/min/mg
same,kcat,[6],234 ± 18.8 s⁻¹
same,kcat/Km,[6],1.7e+07 ± 2.5e+06 M⁻¹ s⁻¹
Leishmania donovani glucose 6-phosphate dehydrogenase wild type (enzyme),stoichiometry N,[7],4 and 2
B1,Km,"[8]; 50 mM Tris pH 7.5, 3.3 mM MgCl2, 0.005% Tween, 1 mg/mL BSA, 25 °C, dimer fraction, crystal ligand given as NADP(H), redox state open",15.9 ± 1.1 µM
B2,Km,[9],14.2 ± 0.9 µM
same,Vmax,[9],185 µmol/min/mg
same,kcat,[9],204 ± 13.6 s⁻¹
same,kcat/Km,[9],1.49e+07 ± 3e+06 M⁻¹ s⁻¹
B3,Km,"[8]; 50 mM Tris pH 7.5, 3.3 mM MgCl2, 25 °C",11.4 ± 1.5 µM
